Experimental data taken from IntAct's records for PubMed 22491013.

B1: Low-density lipoprotein receptor-related protein 6 (Homo sapiens), O75581 (parent)
chain: MGAVLRSLLACSFCVLLRAAPLLLYANRRDLRLVDATNGKENATIVVGGLEDAAAVDFVFSHGLIYWSDVSEEAIKRTEFNKTESVQNVVVSGLLSPDGLACDWLGEKLYWTDSETNRIEVSNLDGSLRKVLFWQELDQPRAIALDPSSGFMYWTDWGEVPKIERAGMDGSSRFIIINSEIYWPNGLTLDYEEQKLYWADAKLNFIHKSNLDGTNRQAVVKGSLPHPFALTLFEDILYWTDWSTHSILACNKYTGEGLREIHSDIFSPMDIHAFSQQRQPNATNPCGIDNGGCSHLCLMSPVKPFYQCACPTGVKLLENGKTCKDGATELLLLARRTDLRRISLDTPDFTDIVLQLEDIRHAIAIDYDPVEGYIYWTDDEVRAIRRSFIDGSGSQFVVTAQIAHPDGIAVDWVARNLYWTDTGTDRIEVTRLNGTMRKILISEDLEEPRAIVLDPMVGYMYWTDWGEIPKIERAALDGSDRVVLVNTSLGWPNGLALDYDEGKIYWGDAKTDKIEVMNTDGTGRRVLVEDKIPHIFGFTLLGDYVYWTDWQRRSIERVHKRSAEREVIIDQLPDLMGLKATNVHRVIGSNPCAEENGGCSHLCLYRPQGLRCACPIGFELISDMKTCIVPEAFLLFSRRADIRRISLETNNNNVAIPLTGVKEASALDFDVTDNRIYWTDISLKTISRAFMNGSALEHVVEFGLDYPEGMAVDWLGKNLYWADTGTNRIEVSKLDGQHRQVLVWKDLDSPRALALDPAEGFMYWTEWGGKPKIDRAAMDGSERTTLVPNVGRANGLTIDYAKRRLYWTDLDTNLIESSNMLGLNREVIADDLPHPFGLTQYQDYIYWTDWSRRSIERANKTSGQNRTIIQGHLDYVMDILVFHSSRQSGWNECASSNGHCSHLCLAVPVGGFVCGCPAHYSLNADNRTCSAPTTFLLFSQKSAINRMVIDEQQSPDIILPIHSLRNVRAIDYDPLDKQLYWIDSRQNMIRKAQEDGSQGFTVVVSSVPSQNLEIQPYDLSIDIYSRYIYWTCEATNVINVTRLDGRSVGVVLKGEQDRPRAVVVNPEKGYMYFTNLQERSPKIERAALDGTEREVLFFSGLSKPIALALDSRLGKLFWADSDLRRIESSDLSGANRIVLEDSNILQPVGLTVFENWLYWIDKQQQMIEKIDMTGREGRTKVQARIAQLSDIHAVKELNLQEYRQHPCAQDNGGCSHICLVKGDGTTRCSCPMHLVLLQDELSCGEPPTCSPQQFTCFTGEIDCIPVAWRCDGFTECEDHSDELNCPVCSESQFQCASGQCIDGALRCNGDANCQDKSDEKNCEVLCLIDQFRCANGQCIGKHKKCDHNVDCSDKSDELDCYPTEEPAPQATNTVGSVIGVIVTIFVSGTVYFICQRMLCPRMKGDGETMTNDYVVHGPASVPLGYVPHPSSLSGSLPGMSRGKSMISSLSIMGGSSGPPYDRAHVTGASSSSSSSTKGTYFPAILNPPPSPATERSHYTMEFGYSSNSPSTHRSYSYRPYSYRHFAPPTTPCSTDVCDSDYAPSRRMTSVATAKGYTSDLNYDSEPVPPPPTPRSQYLSAEENYESCPPSPYTERSYSHHLYPPPPSPCTDSS
partner: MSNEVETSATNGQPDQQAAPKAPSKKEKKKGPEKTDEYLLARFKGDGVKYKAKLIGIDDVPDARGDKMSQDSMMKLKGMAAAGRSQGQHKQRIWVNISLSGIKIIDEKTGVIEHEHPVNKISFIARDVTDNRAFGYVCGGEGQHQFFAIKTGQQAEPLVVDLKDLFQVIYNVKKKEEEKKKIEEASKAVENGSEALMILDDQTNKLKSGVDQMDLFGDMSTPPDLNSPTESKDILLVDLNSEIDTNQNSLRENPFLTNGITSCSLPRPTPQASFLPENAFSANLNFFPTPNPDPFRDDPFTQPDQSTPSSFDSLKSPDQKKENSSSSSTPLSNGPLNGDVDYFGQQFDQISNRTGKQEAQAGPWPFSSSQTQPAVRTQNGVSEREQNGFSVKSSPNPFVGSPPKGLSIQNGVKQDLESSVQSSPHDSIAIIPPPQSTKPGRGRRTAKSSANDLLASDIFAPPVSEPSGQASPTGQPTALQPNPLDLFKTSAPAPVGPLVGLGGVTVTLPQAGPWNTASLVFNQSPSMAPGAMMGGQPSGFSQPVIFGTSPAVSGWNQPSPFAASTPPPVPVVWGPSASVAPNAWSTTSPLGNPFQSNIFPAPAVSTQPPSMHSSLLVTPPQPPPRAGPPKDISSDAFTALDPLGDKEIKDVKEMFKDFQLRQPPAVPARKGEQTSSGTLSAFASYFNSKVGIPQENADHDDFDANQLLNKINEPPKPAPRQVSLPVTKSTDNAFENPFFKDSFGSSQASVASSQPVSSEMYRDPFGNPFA

Variants of: B1
Conditions: with dab2_human DAB2, P98082

Row | effect of a mutation on the interaction | Variant
1 | decreasing interaction | S1596A

Variants of: B1
Conditions: with dab2_human DAB2, P98082
Remark: another data set of the same source

Row | effect of a mutation on the interaction | Variant
2 | disrupting interaction | S1579A

Variants of: B1
Conditions: with dab2_human DAB2, P98082
Remark: another data set of the same source

Row | effect of a mutation on the interaction | Variant
3 | increasing interaction | S1613A

Variants of: B1
Conditions: with dab2_human DAB2, P98082
Remark: another data set of the same source

Row | effect of a mutation on the interaction | Variant
4 | decreasing interaction | T1593A

Variants of: B1
Conditions: with dab2_human DAB2, P98082
Remark: another data set of the same source

Row | effect of a mutation on the interaction | Variant
5 | increasing interaction | S1598A

Variants of: B1
Conditions: with dab2_human DAB2, P98082
Remark: another data set of the same source

Row | effect of a mutation on the interaction | Variant
6 | decreasing interaction | Y1592A

Variants of: B1
Conditions: with dab2_human DAB2, P98082
Remark: another data set of the same source

Row | effect of a mutation on the interaction | Variant
7 | decreasing interaction | T1572A

Variants of: B1
Conditions: with dab2_human DAB2, P98082
Remark: another data set of the same source

Row | effect of a mutation on the interaction | Variant
8 | decreasing interaction | S1607A

Variants of: B1
Conditions: with dab2_human DAB2, P98082
Remark: another data set of the same source

Row | effect of a mutation on the interaction | Variant
9 | decreasing interaction | S1575A

Variants of: B1
Conditions: with dab2_human DAB2, P98082
Remark: another data set of the same source

Row | effect of a mutation on the interaction | Variant
10 | decreasing interaction | Y1577A

Variants of: B1
Conditions: with dab2_human DAB2, P98082
Remark: another data set of the same source

Row | effect of a mutation on the interaction | Variant
11 | decreasing interaction | S1590A

Variants of: B1
Conditions: with dab2_human DAB2, P98082
Remark: another data set of the same source

Row | effect of a mutation on the interaction | Variant
12 | decreasing interaction | T1610A

Variants of: B1
Conditions: with dab2_human DAB2, P98082
Remark: another data set of the same source

Row | effect of a mutation on the interaction | Variant
13 | decreasing interaction | S1586A

Variants of: B1
Conditions: with dab2_human DAB2, P98082
Remark: another data set of the same source

Row | effect of a mutation on the interaction | Variant
14 | decreasing interaction | Y1584A
